According to patent publication US20220396618A1 (RESEARCH FOUNDATION FOR THE STATE UNIVERSITY OF NEW YORK, published 2022):

Experiments:
[1] = target: T1, human RAGE extracellular domain (human, UniProt Q15109 23-342); test: ELISA, apparent Kd
T1 construct: extracellular domain; Immobilized on ELISA plates; also called WT human RAGE

murine RAGE = murine RAGE (murine, UniProt Q62151 23-231, limits assumed); test: ELISA, apparent Kd
murine RAGE V-C1 domain = target: T2, murine RAGE V-C1 domain (murine, UniProt Q62151 23-231, limits assumed); test: ELISA, apparent Kd
T2 construct: domain: V-C1 domain; Used as the immunogen and as the ELISA antigen; also called mVC1; WT mVC1
T2 sequence (Q62151 23-231 limits assumed): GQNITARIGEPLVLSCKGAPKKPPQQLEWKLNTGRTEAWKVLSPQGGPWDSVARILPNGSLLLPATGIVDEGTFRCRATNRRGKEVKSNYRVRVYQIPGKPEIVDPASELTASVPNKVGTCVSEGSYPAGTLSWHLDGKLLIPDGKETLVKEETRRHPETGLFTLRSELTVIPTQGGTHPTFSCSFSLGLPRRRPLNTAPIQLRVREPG

[2] = target: T3, human RAGE R216A-R218A mutant (human, UniProt Q15109 23-342); test: ELISA on immobilized antigen
T3 construct: extracellular domain; Mutant of the human RAGE extracellular domain, immobilized for ELISA
T3 sequence (Q15109 23-342 R216A/R218A): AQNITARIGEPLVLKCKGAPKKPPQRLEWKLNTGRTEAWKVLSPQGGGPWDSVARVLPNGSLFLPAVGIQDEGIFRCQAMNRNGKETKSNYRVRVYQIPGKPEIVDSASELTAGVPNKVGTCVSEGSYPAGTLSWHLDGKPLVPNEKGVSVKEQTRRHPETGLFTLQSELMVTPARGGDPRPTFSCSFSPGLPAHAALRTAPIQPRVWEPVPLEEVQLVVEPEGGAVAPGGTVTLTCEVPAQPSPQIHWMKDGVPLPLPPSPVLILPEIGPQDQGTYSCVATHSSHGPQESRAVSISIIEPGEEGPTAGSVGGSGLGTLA
Protocol: As shown in the dashed oval, the epitope of B2 mAb includes R216 and R218. Panel B depicts the binding of B2 mAbs to immobilized WT human RAGE or the R216A-R218A mutant as determined by ELISA. The binding of B2 mAbs to R216A-R218A was reduced by 40-fold.
200 ng of human RAGE extracellular domain or R216A-R218A mutant were immobilized onto 96-well high-binding ELISA plate. Plates were blocked with 5% BSA in PBS and incubated with 0.01 to 10 nM of rabbit B2 mAb for 1 hour at room temperature. Bound B2 mAbs were quantitated with anti-rabbit-HRP (Jackson Immunology) followed by the addition of HRP substrate (Thermo Scientific).

T1 sequence (Q15109 23-342): as the sequence (Q15109 23-342 R216A/R218A) above, with A194R, A196R counted along it
Chain of murine RAGE (Q62151 23-231 limits assumed): as the sequence (Q62151 23-231 limits assumed) above

B1: rabbit B2 mAb (antibody, V domains shown)
VH: QSVKESEGGLFKPTDTLTLTCTVSGFTISSYDMSWVRQAPGKGLEWIGAIDSSGSAHYASWARSRSTITRNTNLNTVTLKMTSLTAADTATYFCWNANIWGPGTLVTVSS
VL: AQVLTQTASPVSAAVGSTVTINCQASQNVYDNNHLSWYQQKRGQPPKLLIYYASALASGVSSRFKGSGSGTQFTLTINDVQCDDAATYYCLGSYDCSADCFAFGGGTEVVV
notes: Rabbit monoclonal antibody from a hybridoma; also called B2 mAbs; rabbit mAb B2
Kd [1]: 0.08 nM | Kd (murine RAGE): 0.03 nM | Kd (murine RAGE V-C1 domain): 0.08 nM | fold reduction of binding against WT human RAGE [2]: 40 fold
